The results in this text go back to PMC12120770, “Unveiling Structural Heterogeneity and Evolutionary Adaptations of Heteromultimeric Bacterioferritin Nanocages” (Advanced Science, 2025).

Data set [1] deals with the molecule itself. The experiment in a line: cryo-EM structure; single-particle cryo-EM of purified SoBfr12 (1.7 mg mL^-1), subunits co-expressed in E. coli; refined with C1 symmetry, 2.62 Å.
Data set [2] deals with the molecule itself. The experiment in a line: native gel or EMSA; purified PaBfrB on 6% native PAGE, Tris-glycine pH 8.3, 4 °C. In general terms: Mobility shift assays separate free from complexed probe on a gel.

B1: SoBfr1, heme-free subunit of the Shewanella oneidensis hetero-bacterioferritin SoBfr12 (natural protein)
chain: MKGDKDVIDALNRLLTGELSAMDQYFVHAHMYEDWGLNELYERIAHESDDEKGHAAKLVQRILFLEGVPNVAAREALNIGSNVEEMLRNDLAYEYKVADDLRKVIALCEQKKDYQTREILEVLLDDTESDHMYWLEKQLGLIDRIGLANYLQTKM
notes: SoBfr1, heme-free bacterioferritin subunit of Shewanella oneidensis, amplified from genomic DNA together with SoBfr2; Expressed from one DNA fragment encoding SoBfr2 and SoBfr1 with a Strep-tag II; not shown: Strep-tag II, C-terminal, kept
Take B1: in data set [1], the stoichiometry N (usually a count of units in the complex or per binding partner) worked out at 2.

B2: PaBfrB, Pseudomonas aeruginosa homo-bacterioferritin subunit (natural protein)
chain: not shown
notes: also called homo-Bfr
Consider B2, for which, in data set [2], the binding result was “binds”.

B3: SoBfr2, heme-binding subunit of the Shewanella oneidensis hetero-bacterioferritin SoBfr12 (natural protein)
chain: MKGHPKVVGQLNRVLTCELTAINQYFLHARMFKHWGLEKLNHVEYKKSIEDMKHADKLIERVLFLEGLPNLQQLEKLRIGEHAQEMLDCDLAMVQEQLTLLRDAITLCEAEQDYVSRDLLEDILEDEEEHLDWLESQRELIGLTGIQNYLQSQISES
On to B3, for which the “stoichiometry N” value in data set [1] was 2.
